Experimental data taken from patent publication US20220064276A1 (SCHOLAR ROCK, published 2022).
Numbering of substitutions follows the chain as printed. Several values for one entry are separate records, joined by “and”; a condition that tells them apart may be missing. Identical values can stand only once.

B1: SR-AB31 (antibody, IgG1, V domains shown)
VH: QVQLVESGGGVVQPGRSLRLSCAASGFTFRSYVMHWVRQAPGKGLEWVAVISHEGSLKYYADSVKGRFTISRDNSKNTLYLQMNSLRAEDTAVYYCAVPRIAARRGGFGYWGQGTLVTVSS
VL: NFMLTQPHSVSESPGKTVTISCTRSSGNIDNNYVQWYQQRPGSSPTTVIYEDNQRPSGVPDRFSGSIDSSSNSASLTISGLKTEDEADYYCQSYDFNNQGVVFGGGTKLTVL
notes: Cycle 3, lineage SR-AB22
B2: SR-AB42 (antibody, IgG1, V domains shown)
VH: B1 VH with V98R
VL: B1 VL with F96Y, N97D, N98T
notes: Cycle 3, lineage SR-AB23
B3: SR-AB45 (antibody, IgG1, V domains shown)
VH: B1 VH with V98R
VL: B1 VL with N28A, N31D, N53F, F96D, N97D, N98L
notes: Cycle 3, lineage SR-AB23
B4: SR-AB41 (antibody, IgG1, V domains shown)
VH: B1 VH with V98R
VL: B1 VL with F96Y, N97D, G100A
notes: Cycle 3, lineage SR-AB23
B5: SR-AB44 (antibody, IgG1, V domains shown)
VH: B1 VH with V98R
VL: B1 VL with S26H, N31D, Q54V, F96S, N97D, G100L
notes: Cycle 3, lineage SR-AB23
B6: SR-AB38 (antibody, IgG1, V domains shown)
VH: B1 VH
VL: B1 VL with N28S, N53F, Q54I, F96D, N97D, N98L
notes: Cycle 3, lineage SR-AB22
B7: SR-AB34 (antibody, IgG1, V domains shown)
VH: B1 VH
VL: B1 VL with F96Y, N97D, N98A
notes: Cycle 3, lineage SR-AB22
B8: SR-AB54-HuFab (Fab, V domains shown)
VH: B1 VH with L57G, V98L, Y110S
VL: B1 VL with N31Y, Q54V, F96S, N97D, G100R
notes: Human Fab; also called SR-AB54 Fab
B9: SR-AB55-HuFab (Fab, V domains shown)
VH: B1 VH with L57G, V98L, Y110S
VL: B1 VL with N31Y, Q54V, F96Y, N97D, G100A
notes: Human Fab; also called SR-AB55 Fab
B10: SR-AB59-HuFab (Fab, V domains shown)
VH: B1 VH with L57G, V98L, Y110T
VL: B1 VL with N31Y, Q54V, F96Y, N97D, G100A
notes: Human Fab; also called SR-AB59 Fab
B11: SR-AB52-HuFab (Fab, V domains shown)
VH: B1 VH with L57G, V98R, Y110T
VL: B1 VL with N31Y, Q54V, F96Y, N97D, N98T
notes: Human Fab; also called SR-AB52 Fab
B12: SR-AB53-HuFab (Fab, V domains shown)
VH: B1 VH with L57G, V98R, Y110T
VL: B1 VL with N31Y, Q54V, S93G, F96W, N97D, N98T
notes: Human Fab; also called SR-AB53 Fab
B13: SR-AB50-HuFab (Fab, V domains shown)
VH: B1 VH with L57G, V98R, Y110T
VL: B1 VL with N31Y, Q54V, F96S, N97D, G100R
notes: Human Fab; also called SR-AB50 Fab
B14: SR-AB60-HuFab (Fab, V domains shown)
VH: B1 VH with L57G, V98L, Y110T
VL: B1 VL with N31Y, Q54V, F96Y, N97D, N98T
notes: Human Fab; also called SR-AB60 Fab
B15: SR-AB48-HuFab (Fab, V domains shown)
VH: B1 VH with L57G, V98R, Y110S
VL: B1 VL with N31Y, Q54V, F96Y, N97D, N98T
notes: Human Fab; also called SR-AB48 Fab
B16: SR-AB58-HuFab (Fab, V domains shown)
VH: B1 VH with L57G, V98L, Y110T
VL: B1 VL with N31Y, Q54V, F96S, N97D, G100R
notes: Human Fab; also called SR-AB58 Fab
B17: SR-AB46-HuFab (Fab, V domains shown)
VH: B1 VH with L57G, V98R, Y110S
VL: B1 VL with N31Y, Q54V, F96S, N97D, G100R
notes: Human Fab; also called SR-AB46 Fab
B18: SR-AB56-HuFab (Fab, V domains shown)
VH: B1 VH with L57G, V98L, Y110S
VL: B1 VL with N31Y, Q54V, F96Y, N97D, N98T
notes: Human Fab; also called SR-Ab56 Fab
B19: SR-AB51-HuFab (Fab, V domains shown)
VH: B1 VH with L57G, V98R, Y110T
VL: B1 VL with N31Y, Q54V, F96Y, N97D, G100A
notes: Human Fab; also called SR-AB51 Fab
B20: SR-AB57-HuFab (Fab, V domains shown)
VH: B1 VH with L57G, V98L, Y110S
VL: B1 VL with N31Y, Q54V, S93G, F96W, N97D, N98T
notes: Human Fab; also called SR-AB57 Fab
B21: SR-AB61-HuFab (Fab, V domains shown)
VH: B1 VH with L57G, V98L, Y110T
VL: B1 VL with N31Y, Q54V, S93G, F96W, N97D, N98T
notes: Human Fab; also called SR-AB61 Fab

target: T1, human LTBP3-proTGFβ1 complex (human, UniProt Q9NS15 44-1303; P01137 30-390, limits assumed); test: Octet BLI, IgG captured
T1 construct: Exemplary entries; also called Hu LTBP3-proTGFβ1; huLTBP3 proTGFb1
T1 sequence (Q9NS15 44-1303 limits assumed, chain 1 of 2): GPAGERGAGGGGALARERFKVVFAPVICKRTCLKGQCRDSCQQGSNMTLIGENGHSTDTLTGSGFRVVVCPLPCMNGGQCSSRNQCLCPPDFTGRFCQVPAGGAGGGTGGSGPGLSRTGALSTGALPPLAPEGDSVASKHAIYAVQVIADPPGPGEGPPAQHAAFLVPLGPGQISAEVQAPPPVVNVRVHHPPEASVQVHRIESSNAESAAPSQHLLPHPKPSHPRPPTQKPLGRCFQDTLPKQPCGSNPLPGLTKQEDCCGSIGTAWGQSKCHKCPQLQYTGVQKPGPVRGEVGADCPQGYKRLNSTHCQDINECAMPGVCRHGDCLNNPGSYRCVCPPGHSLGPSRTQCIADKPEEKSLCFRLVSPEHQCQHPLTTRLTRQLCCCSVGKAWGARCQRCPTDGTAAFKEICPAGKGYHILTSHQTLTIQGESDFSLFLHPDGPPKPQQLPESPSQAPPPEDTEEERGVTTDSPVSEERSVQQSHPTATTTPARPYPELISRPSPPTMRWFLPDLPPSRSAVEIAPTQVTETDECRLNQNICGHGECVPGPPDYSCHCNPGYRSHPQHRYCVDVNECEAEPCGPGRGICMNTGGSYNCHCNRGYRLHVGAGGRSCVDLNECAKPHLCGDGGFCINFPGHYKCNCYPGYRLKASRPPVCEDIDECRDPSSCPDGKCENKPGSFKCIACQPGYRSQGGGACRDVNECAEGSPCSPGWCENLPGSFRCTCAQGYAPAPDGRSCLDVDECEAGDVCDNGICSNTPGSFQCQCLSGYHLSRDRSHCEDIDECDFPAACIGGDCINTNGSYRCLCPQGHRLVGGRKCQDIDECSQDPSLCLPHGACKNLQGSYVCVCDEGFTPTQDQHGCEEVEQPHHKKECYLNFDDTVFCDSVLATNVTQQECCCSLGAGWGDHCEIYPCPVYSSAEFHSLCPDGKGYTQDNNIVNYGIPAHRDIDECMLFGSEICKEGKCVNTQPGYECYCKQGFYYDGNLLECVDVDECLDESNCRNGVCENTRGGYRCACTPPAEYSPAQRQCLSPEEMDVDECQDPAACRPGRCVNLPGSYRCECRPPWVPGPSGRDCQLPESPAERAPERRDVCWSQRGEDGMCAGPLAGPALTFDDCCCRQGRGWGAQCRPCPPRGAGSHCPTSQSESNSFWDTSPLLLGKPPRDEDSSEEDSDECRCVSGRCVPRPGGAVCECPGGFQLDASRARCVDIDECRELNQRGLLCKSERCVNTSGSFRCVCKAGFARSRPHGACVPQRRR
T1 sequence (P01137 30-390 limits assumed, chain 2 of 2): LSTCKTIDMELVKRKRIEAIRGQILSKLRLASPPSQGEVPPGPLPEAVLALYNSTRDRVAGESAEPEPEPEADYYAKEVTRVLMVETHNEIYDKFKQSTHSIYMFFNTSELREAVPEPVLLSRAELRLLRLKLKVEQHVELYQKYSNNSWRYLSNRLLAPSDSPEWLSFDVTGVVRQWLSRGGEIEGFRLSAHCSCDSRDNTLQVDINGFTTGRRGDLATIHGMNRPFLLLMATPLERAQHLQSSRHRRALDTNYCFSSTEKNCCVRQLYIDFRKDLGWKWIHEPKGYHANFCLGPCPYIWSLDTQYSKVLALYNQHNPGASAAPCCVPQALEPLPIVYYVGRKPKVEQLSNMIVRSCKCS
Procedure: (§1) Binding affinities of the optimized antibodies were measured by Octet against human LTBP1-proTGFβ1, human LTBP3-proTGFβ1, mouse LTBP1-proTGFβ1, mouse LTBP3-proTGFβ1, and GARP-proTGFβ1 complexes, essentially as described in Example 6. […] The antigens were allowed to associate for 3 minutes followed by a 5-minute dissociation. Kinetics buffer (ForteBio®) was used throughout the experiment, and KD was determined using a 1:1 fitting model for each antibody antigen pair.

Kd [nM]	koff [s⁻¹]	kon [M⁻¹ s⁻¹]	Binder
0.221	6.81e-05	308000	B1
0.259	6e-05	232000	B2
0.122	6e-05	491000	B3
0.235	6e-05	255000	B4
0.146	6e-05	410000	B5
0.145	7.26e-05	502000	B6
0.179	6.68e-05	372000	B7

target: T2, human LTBP1-proTGFβ1 complex (human, UniProt Q14766 347-1721; P01137 30-390); test: Octet BLI, IgG captured
T2 construct: Large latent complex: one presenting molecule disulfide-linked to a proTGFβ1 dimer; also called Hu LTBP1-proTGFβ1; huLTBP1 proTGFβ1
Procedure: as §1

Kd [nM]	koff [s⁻¹]	kon [M⁻¹ s⁻¹]	Binder
0.412	9.89e-05	240000	B1
0.389	6e-05	154000	B2
0.193	6e-05	310000	B3
0.296	6e-05	203000	B4
0.214	6e-05	280000	B5
0.357	0.000117	327000	B6
0.231	6e-05	259000	B7

target: T3, mouse LTBP1-proTGFβ1 complex (mouse, UniProt Q8CG19 339-1712; P04202 30-390); test: Octet BLI, IgG captured
T3 construct: Exemplary entries; In the cell assays expressed from mouse LTBP1S and mouse proTGFb1 plasmids in LN229 cells; also called Mo LTBP1-proTGFβ1; MuLTBP1-ProTGFb1
T3 sequence (Q8CG19 339-1712 limits assumed, chain 1 of 2): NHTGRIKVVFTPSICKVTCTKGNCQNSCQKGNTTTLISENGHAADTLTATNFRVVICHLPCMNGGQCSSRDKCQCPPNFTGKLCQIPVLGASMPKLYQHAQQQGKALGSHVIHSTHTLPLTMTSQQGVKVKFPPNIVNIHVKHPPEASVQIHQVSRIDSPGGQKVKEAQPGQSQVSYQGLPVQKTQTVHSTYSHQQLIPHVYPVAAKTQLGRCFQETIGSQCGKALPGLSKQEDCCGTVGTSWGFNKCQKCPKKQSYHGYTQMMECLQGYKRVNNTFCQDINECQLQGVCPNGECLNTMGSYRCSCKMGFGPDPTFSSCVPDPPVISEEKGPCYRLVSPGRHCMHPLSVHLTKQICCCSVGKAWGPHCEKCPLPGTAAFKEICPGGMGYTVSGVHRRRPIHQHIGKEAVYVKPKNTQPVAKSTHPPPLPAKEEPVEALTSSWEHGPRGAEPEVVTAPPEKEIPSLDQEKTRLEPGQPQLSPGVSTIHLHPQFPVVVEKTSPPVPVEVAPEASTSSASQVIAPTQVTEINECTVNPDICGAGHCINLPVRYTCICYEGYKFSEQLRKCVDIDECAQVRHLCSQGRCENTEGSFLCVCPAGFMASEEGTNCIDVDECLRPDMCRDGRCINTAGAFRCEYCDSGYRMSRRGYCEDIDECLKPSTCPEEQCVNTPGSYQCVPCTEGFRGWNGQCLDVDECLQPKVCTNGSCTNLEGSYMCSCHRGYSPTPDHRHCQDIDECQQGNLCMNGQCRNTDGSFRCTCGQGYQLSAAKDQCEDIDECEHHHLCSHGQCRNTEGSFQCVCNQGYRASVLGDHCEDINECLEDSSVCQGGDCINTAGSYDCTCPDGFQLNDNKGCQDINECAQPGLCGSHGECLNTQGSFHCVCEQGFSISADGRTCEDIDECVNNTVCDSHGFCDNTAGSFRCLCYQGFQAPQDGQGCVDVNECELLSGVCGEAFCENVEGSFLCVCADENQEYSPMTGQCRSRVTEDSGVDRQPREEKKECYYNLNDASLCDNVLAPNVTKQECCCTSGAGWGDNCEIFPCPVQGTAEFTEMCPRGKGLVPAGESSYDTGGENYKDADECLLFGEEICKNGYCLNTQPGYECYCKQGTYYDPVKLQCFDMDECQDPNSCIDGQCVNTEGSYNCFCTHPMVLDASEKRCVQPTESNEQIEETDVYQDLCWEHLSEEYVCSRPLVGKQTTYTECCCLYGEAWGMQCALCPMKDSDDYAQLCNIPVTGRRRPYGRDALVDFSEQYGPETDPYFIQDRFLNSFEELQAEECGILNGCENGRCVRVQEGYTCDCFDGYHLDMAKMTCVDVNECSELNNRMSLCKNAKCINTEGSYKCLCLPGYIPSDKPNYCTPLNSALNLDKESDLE
T3 sequence (P04202 30-390 limits assumed, chain 2 of 2): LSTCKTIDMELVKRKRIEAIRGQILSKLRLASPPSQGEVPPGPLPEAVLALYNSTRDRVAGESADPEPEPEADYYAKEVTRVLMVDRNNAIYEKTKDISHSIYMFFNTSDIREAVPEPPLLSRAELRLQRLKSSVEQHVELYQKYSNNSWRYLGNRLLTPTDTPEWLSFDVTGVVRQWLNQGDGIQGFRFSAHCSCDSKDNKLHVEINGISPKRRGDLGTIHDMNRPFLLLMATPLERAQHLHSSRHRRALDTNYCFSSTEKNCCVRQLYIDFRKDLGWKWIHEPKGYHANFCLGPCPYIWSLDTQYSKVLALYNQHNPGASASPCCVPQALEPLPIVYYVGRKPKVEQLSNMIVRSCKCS
Procedure: as §1

Kd [nM]	Binder
0.682	B1
0.359	B2
0.193	B3
0.404	B4
0.21	B5
0.391	B6
0.417	B7

target: T4, mouse LTBP3-proTGFβ1 complex (mouse, UniProt Q61810 41-1245; P04202 30-390, limits assumed); test: Octet BLI, IgG captured
T4 construct: Exemplary entries; also called Mo LTBP3-proTGFβ1; Murine LTBP3 proTGFb1
Procedure: as §1

Kd [nM]	Binder
0.589	B1
1.05	B2
0.269	B3
0.717	B4
0.407	B5
0.331	B6
0.45	B7

target: T5, human GARP-proTGFβ1 complex (human, UniProt Q14392 18-627; P01137 30-390, limits assumed); test: Octet BLI, IgG captured
T5 construct: Exemplary entries; also called Hu GARP-proTGFβ1; huGARP proTGFb1
T5 sequence (Q14392 18-627 limits assumed, chain 1 of 2): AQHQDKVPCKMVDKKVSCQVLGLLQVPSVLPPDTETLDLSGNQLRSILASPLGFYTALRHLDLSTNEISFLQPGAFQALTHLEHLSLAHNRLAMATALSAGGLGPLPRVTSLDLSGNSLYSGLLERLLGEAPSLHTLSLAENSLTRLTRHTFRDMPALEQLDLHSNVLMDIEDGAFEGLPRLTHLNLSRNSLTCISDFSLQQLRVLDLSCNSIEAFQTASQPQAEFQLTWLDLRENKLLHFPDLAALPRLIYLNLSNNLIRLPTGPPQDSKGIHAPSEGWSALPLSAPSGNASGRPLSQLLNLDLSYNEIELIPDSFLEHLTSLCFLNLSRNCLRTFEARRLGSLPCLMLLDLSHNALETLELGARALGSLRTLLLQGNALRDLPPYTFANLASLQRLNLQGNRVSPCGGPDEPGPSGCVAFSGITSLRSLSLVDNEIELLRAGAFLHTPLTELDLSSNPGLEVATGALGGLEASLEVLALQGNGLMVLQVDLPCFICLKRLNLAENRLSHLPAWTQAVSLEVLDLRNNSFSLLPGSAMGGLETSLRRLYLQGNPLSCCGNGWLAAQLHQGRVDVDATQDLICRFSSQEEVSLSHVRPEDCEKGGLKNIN
T5 sequence (P01137 30-390 limits assumed, chain 2 of 2): as the sequence (P01137 30-390 limits assumed, chain 2 of 2) above
Procedure: as §1

Kd [nM]	Binder
11.2	B1
195	B3
764	B4
212	B5
8.42	B6
73.5	B7

target: T5, human GARP-proTGFβ1 complex; test: Octet BLI, Table 10 (repeats Table 9)
Procedure: as §1
Table 9 presents the binding profile and affinity data for the indicated LTBP complex-specific antibodies (IgG1-agly) identified from the light chain optimization cycle 3, determined by Octet.

Kd [nM]	Binder
11.2	B1
195	B3
764	B4
212	B5
8.42	B6
73.5	B7

target: T6, LTBP-proTGFβ1: transfected human proTGFβ1 presented by endogenous LTBP1/3 of LN229 cells (human); test: cell-based or functional assay
T6 sequence (P01137 30-390): as the sequence (P01137 30-390 limits assumed, chain 2 of 2) above

IC50, endogenous hLTBP assay (CAGA12 luciferase)	Binder
1.26 nM and 1.56 nM	B1
0.909 nM	B7

target: T3, mouse LTBP1-proTGFβ1 complex; test: cell-based or functional assay

IC50, mLTBP1 assay (CAGA12 luciferase) [nM]	Binder
0.431	B1
0.423	B7

target: T2, human LTBP1-proTGFβ1 complex; test: SPR Biacore 8K, Fab over captured antigen
Procedure: A Biacore 8K system was employed to determine the monovalent binding affinity and the kinetic parameters for antigen binding of test antibodies. Association and dissociation kinetics of Fab fragments SR-AB42-HuFab, SR-AB63-HuFab and SR-AB43-HuFab to antigen complexes were measured, and resulting ka, kd and KD are provided below. Briefly, the binding kinetics were evaluated by surface plasmon resonance using Biacore 8K (GE Healthcare). Biotinylated capture antigens were immobilized to the chip (10 nM, ˜200 RU loading). A Biotin CAPture sensor chip was used to capture the biotinylated antigens. […] 0 nM was used as a reference. […] 0 nM was used as a reference. Multi-cycle kinetics was employed where each analyte concentration was injected in a separate cycle and the sensor chip surface was regenerated after each cycle. A11 the assays were carried out in freshly prepared 1× HBS-EP+ buffer (10 mM HEPES, 150 mM NaCl, 3 mM EDTA, 0.05% Tween20, pH 7.4). Data were fit globally to a 1:1 binding model to obtain the kinetic parameters. The sensorgram for 0 nM analyte concentration was used as reference.

Kd [nM]	koff [s⁻¹]	kon [M⁻¹ s⁻¹]	Binder
0.0491	8.83e-05	1.8e+06	B8
0.131	0.000113	862000	B9
0.0509	0.00013	2.55e+06	B10
0.0396	9.91e-05	2.5e+06	B11
0.0707	0.000128	1.82e+06	B12
0.055	0.000182	3.31e+06	B13
0.051	0.00012	2.35e+06	B14
0.0593	0.000104	1.76e+06	B15
0.0521	0.000162	3.11e+06	B16
0.0444	0.00011	2.47e+06	B17
0.0489	0.000126	2.58e+06	B18
0.0589	0.00015	2.55e+06	B19
0.133	0.000181	1.35e+06	B20
0.132	0.000155	1.17e+06	B21

target: T6, LTBP-proTGFβ1: transfected human …; test: cell-based or functional assay; remark: another data set of the same source

IC50, endogenous hLTBP assay (CAGA12 luciferase) [nM]	Binder
1.43	B2
2.25	B3
1.54	B4
1.51	B5

target: T3, mouse LTBP1-proTGFβ1 complex; test: cell-based or functional assay; remark: another data set of the same source

IC50, mLTBP1 assay (CAGA12 luciferase) [nM]	Binder
0.271	B2
0.264	B3
0.409	B4
0.3	B5
